# Laboratory results reported in the supplement of paper PMC10567573.
# B1: SEC22B (parent)
# chain: FPKKLAFAYLEDLHSEFDEQHGKK
# Variants of: B1
# Experiment: protein stability index of a GFP-peptide fusion (GPS, HEK-293T) (PSI 1-6); higher = more stable
# Settings: c terminus: a fixed tail appended
# 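Further: lentivirally expressed fusions sorted by FACS into six bins by GFP to DsRed ratio, PSI derived from sequencing read proportions per bin multiplied by bin number.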
row,Variant,protein stability index
1,FPKKKAFAYLEDLHSEFDEQHGKK [L5K],2.85
2,FPKKLAFAYLEDLHSEFDEQRGKK [H21R],2.37
3,EPKKLAFAYLEDLHSEFDEQHGKK [F1E],5.41
4,FPKKLAFAYLEDLYSEFDEQHGKK [H14Y],2.28
5,FPKKLAFAYLEDLHSVFDEQHGKK [E16V],1.87
6,FPKKLAFNYLEDLHSEFDEQHGKK [A8N],2.83
7,FPKKLAFAYLEDLHSEFDEVHGKK [Q20V],2.84
8,FPKKLAFAALEDLHSEFDEQHGKK [Y9A],2.85
9,FPKKLAFAYLEDLHSEFDENHGKK [Q20N],2.55
10,FPKKLRFAYLEDLHSEFDEQHGKK [A6R],2.28
11,FPEKLAFAYLEDLHSEFDEQHGKK [K3E],2.95
12,FPKWLAFAYLEDLHSEFDEQHGKK [K4W],1.05
13,HPKKLAFAYLEDLHSEFDEQHGKK [F1H],3.84
14,FPKKLAFAYLEDLHSEFDEQHYKK [G22Y],1.98
15,FPKYLAFAYLEDLHSEFDEQHGKK [K4Y],1.95
16,FPKKLAFAYLEDLHSEFDNQHGKK [E19N],2.86
17,FPKKLAFAYLEDLHSGFDEQHGKK [E16G],2.5
18,FPKKLAFDYLEDLHSEFDEQHGKK [A8D],3.39
19,FPKKLAFYYLEDLHSEFDEQHGKK [A8Y],1.79
20,FPKKLAMAYLEDLHSEFDEQHGKK [F7M],2.53
21,FPKKLAFAYLESLHSEFDEQHGKK [D12S],2.16
22,FPKCLAFAYLEDLHSEFDEQHGKK [K4C],1.78
23,FPKKLAFAYLEDLHSKFDEQHGKK [E16K],2.87
24,FPKKLAFAYLEDLHSEFDEDHGKK [Q20D],2.93

row,Variant,protein stability index
1,FPKKLAFAYLEDLHSEFDEQHGKS [K24S],2.8
2,FPKILAFAYLEDLHSEFDEQHGKK [K4I],2.02
3,FPKKLAFAYLEDLHSEFDDQHGKK [E19D],2.92
4,FPKKLAFAYLEDLHDEFDEQHGKK [S15D],2.89
5,FPKKLQFAYLEDLHSEFDEQHGKK [A6Q],3.18
6,FPKKLAFAYLEDLHSEFDEQHGKP [K24P],2.29
7,FPKKLAFAYLEDLHSEEDEQHGKK [F17E],3.04
8,FPKKLAFAYLEDHHSEFDEQHGKK [L13H],2.93
9,FPKKLAFAYLIDLHSEFDEQHGKK [E11I],1.87
10,FPKRLAFAYLEDLHSEFDEQHGKK [K4R],1.61
11,FVKKLAFAYLEDLHSEFDEQHGKK [P2V],2.29
12,FIKKLAFAYLEDLHSEFDEQHGKK [P2I],1.98
13,FPKKLAFAYVEDLHSEFDEQHGKK [L10V],2.11
14,FPKKLAFAYQEDLHSEFDEQHGKK [L10Q],3.39
15,FPKKLTFAYLEDLHSEFDEQHGKK [A6T],3.03
16,FLKKLAFAYLEDLHSEFDEQHGKK [P2L],1.68
17,FHKKLAFAYLEDLHSEFDEQHGKK [P2H],2.17
18,FPKKLAFAYLADLHSEFDEQHGKK [E11A],2.29
19,QPKKLAFAYLEDLHSEFDEQHGKK [F1Q],4.51
20,FPKKLAFAYLEDLHSRFDEQHGKK [E16R],2.39
21,FPKKLAFAYLEDLHSSFDEQHGKK [E16S],2.8
22,FPKKLAFAYLEDAHSEFDEQHGKK [L13A],3.2
23,FPKKLAFAYLEDLHSEFDEQHGKM [K24M],2.36
24,FPKKLAFAYLEDLHSEFDSQHGKK [E19S],2.33

row,Variant,protein stability index
1,FPKKLAFAYPEDLHSEFDEQHGKK [L10P],2.92
2,FPKKLAFAYLEDLHSEGDEQHGKK [F17G],2.4
3,FPKKLAFAYLEDLPSEFDEQHGKK [H14P],2.2
4,FPKKLAFAYLEDLHSEIDEQHGKK [F17I],2.6
5,FPKKLAAAYLEDLHSEFDEQHGKK [F7A],3.63
6,FPKKLAFFYLEDLHSEFDEQHGKK [A8F],2.26
7,FPKKLAFAYLEDLHSEWDEQHGKK [F17W],2.57
8,FPKKLAFAYLEDLHSEFDEQHKKK [G22K],2.23
9,FPKKLAFAYLEDLHSEFDEQHTKK [G22T],2.43
10,FPKKLAFAYLEDGHSEFDEQHGKK [L13G],3.51
11,FPQKLAFAYLEDLHSEFDEQHGKK [K3Q],2.4
12,FPKKLAFAYLECLHSEFDEQHGKK [D12C],1.95
13,FPKKLAFALLEDLHSEFDEQHGKK [Y9L],2.63
14,FPKKLAFAYLEDLHSEFDEQHGKT [K24T],2.5
15,FPKKIAFAYLEDLHSEFDEQHGKK [L5I],2.98
16,FPKKLAFAYLEDLHSEFEEQHGKK [D18E],2.65
17,FPKKLAFAYLEDNHSEFDEQHGKK [L13N],3.13
18,FPKKLAFAYLEDLHSMFDEQHGKK [E16M],1.93
19,FPKKLAFRYLEDLHSEFDEQHGKK [A8R],2.34
20,FPKKLAFAYLEDLHSEFDQQHGKK [E19Q],2.33
21,LPKKLAFAYLEDLHSEFDEQHGKK [F1L],3.79
22,FPKKLAFAYLEDMHSEFDEQHGKK [L13M],2.3
23,FPKKLAFAYKEDLHSEFDEQHGKK [L10K],3.46
24,FPVKLAFAYLEDLHSEFDEQHGKK [K3V],2.53

row,Variant,protein stability index
1,FPKKLAFMYLEDLHSEFDEQHGKK [A8M],2.68
2,FPKKLAFAYLEDLHSEFDPQHGKK [E19P],2.79
3,FPKKLAFAYYEDLHSEFDEQHGKK [L10Y],2.84
4,FPKKLAFAYLEDLHSEFDESHGKK [Q20S],2.58
5,FPLKLAFAYLEDLHSEFDEQHGKK [K3L],2.79
6,FPKKLAFAYLEDLHSEFDEQHWKK [G22W],2.23
7,FPDKLAFAYLEDLHSEFDEQHGKK [K3D],2.25
8,FPKKLAFAYLEDLHSEFDEQKGKK [H21K],2.55
9,FPKKLAFAYLEDLHSEFDGQHGKK [E19G],2.36
10,FPKKLAFAYLEDLHSEFDEQHNKK [G22N],2.71
11,FPKFLAFAYLEDLHSEFDEQHGKK [K4F],1.97
12,FPKKLAFAYLEDLHSWFDEQHGKK [E16W],1.94
13,FPKKLAFAYLEDLHSEFQEQHGKK [D18Q],2.25
14,FPKKLAFAYLEDLHQEFDEQHGKK [S15Q],2.73
15,FPKKLAFAYLQDLHSEFDEQHGKK [E11Q],1.94
16,FPKKLAFAPLEDLHSEFDEQHGKK [Y9P],2.9
17,FPKKLNFAYLEDLHSEFDEQHGKK [A6N],2.56
18,FPKKLAFAYLEDLHSEFDEQHGEK [K23E],2.81
19,FPKKLAFARLEDLHSEFDEQHGKK [Y9R],3.09
20,FPWKLAFAYLEDLHSEFDEQHGKK [K3W],1.96
21,FPKKLAFAYLEDLGSEFDEQHGKK [H14G],2.57
22,FPKKLAFAYLEDLHSEFDEQHRKK [G22R],2.51
